Six substances from publication PMC3315485 can be followed below.

Assay in all cases: MITOMI
Data set [1] concerns MarA RTR (Escherichia coli). Particulars: MITOMI at 295 K; buffer, salt and pH not given in the material; scale: ddG kJ/mol vs strongest site.
Data set [2] deals with MarA TRR (Escherichia coli). The note with it: MITOMI at 295 K; buffer, salt and pH not given in the material.
In data set [3] the test system is MarA wild type (WQR) (Escherichia coli). The note with it: MITOMI at 295 K; buffer, salt and pH not given in the material.
The test system of data set [4] is MarA RQR (Escherichia coli). The note with it: MITOMI at 295 K; buffer, salt and pH not given in the material.

Regarding mar site GAA, the binding signal in data set [1] was more than 3.3.
Consider mar site GAC, for which the binding signal in data set [1] is more than 3.3. In addition, the binding signal (relative KA (strongest site = 1)) in data set [2] was 1.
With mar site GAG, the binding signal in data set [1] is more than 3.3.
Same read-out and setting: the same measure for mar site GAT: more than 3.3.
As for mar site GCA, in data set [3], the binding signal (relative KA (strongest site = 1)) was determined as 1. In data set [4], the binding signal (fold reduced affinity vs TCC) was determined as 1.6.
As for mar site TCC, the binding signal (relative KA (strongest site = 1)) in data set [4] turned out to be 1.
